Experimental data reported in US20190330277A1.
Values joined by “and” are separate entries in the source; they are usually repeats but may differ in a detail not shown here. Equal values may be shown once.

Assays:
[1] = molecular target: 391-2-DS-Cav1-BZGJ9 Long K226L; experiment: ELISA, variant from culture supernatant on Ni-NTA plate
391-2-DS-Cav1-BZGJ9 Long = experiment: as above
391-2-DS-Cav1-BZGJ9_gyc5 = experiment: as above
391-2-DS-Cav1-BZGJ9_gyc7 = experiment: as above
[2] = molecular target: 391-2-DS-Cav1-sc9 100C-362C; experiment: as above
[3] = molecular target: 391-2-DS-Cav1-sc9 99C-362C; experiment: as above
[4] = molecular target: 391-2-DS-Cav1-sc9deleteFS 100C-362C; experiment: as above
[5] = molecular target: 391-2-DS-Cav1-sc9deleteFS 98C-361C; experiment: as above
[6] = molecular target: 391-2-DS-Cav1-sc9deleteFS 98C-362C; experiment: as above
[7] = molecular target: 391-2-DS-Cav1_ I28C-G464C; experiment: as above
[8] = molecular target: 391-2-DS-Cav1_ sc9_I28C-G464C; experiment: as above
[9] = molecular target: 391-2-DS-Cav1_ sc9_I395C-A490C; experiment: as above
[10] = molecular target: 391-2-DS-Cav1_ sc9_S398C-S485C; experiment: as above
[11] = molecular target: 391-2-site 0 hRSV DSCav1-BZGJ9 Long; experiment: as above
391-2_DS-Cav1-tzsc7 = experiment: as above
391-2wt_F-SC_12R core = experiment: as above
[12] = molecular target: RB94 hu/bov DS-Cav1 Long FdPL; experiment: as above
[13] = molecular target: RB94 sc9 DS-CAV1 N183GC-N428C L373R Long K226L; experiment: as above
[14] = molecular target: RB94 site 0 hRSV DS-Cav1-BZGJ9 Long FdPL; experiment: as above
[15] = molecular target: RB94 site 0 hRSV bovSurf DS-Cav1 Long FdPL; experiment: as above
[16] = molecular target: sc9-10_DS-CAV1_bRSV(RB94)_Fd_fp2_ig1; experiment: as above
[17] = molecular target: sc9-10_DS-CAV1_bRSV(RB94)_Fd_hp1_fp1_ig1; experiment: as above
[18] = molecular target: sc9-10_DS-CAV1_bRSV(RB94)_Fd_pm1_fp1_ig1; experiment: as above
391-2-DS-Cav1- F-SC_11R = experiment: ELISA, variant from culture supernatant on Ni-NTA plate [continued]
391-2-DS-Cav1-BZGJ9_gyc3 = experiment: as above
391-2-DS-Cav1-BZGJ9_gyc4 = experiment: as above
391-2-DS-Cav1-BZGJ9_gyc6 = experiment: as above
[19] = molecular target: 391-2-DS-Cav1-BZGJ9deleteFS; experiment: as above
391-2-DS-Cav1-BZGJ9 = experiment: as above
391-2-DS-Cav1-IP-2 = experiment: as above
391-2-DS-Cav1-IP-7 = experiment: as above
391-2-DS-Cav1-SC-IP-1 = experiment: as above
391-2_DS-Cav1-tzsc2 = experiment: as above
391-2_DS-Cav1-tzsc4 = experiment: as above
391-2_DS-Cav1-tzsc6 = experiment: as above
391-2_DS-Cav1-tzsc9 = experiment: as above
[20] = molecular target: RB94 DS-CAV1 N70K S104F K117T; experiment: as above
[21] = molecular target: RB94_sc9-10 DS-CAV1 L373R; experiment: as above
[22] = molecular target: sc9-10_DS-CAV1_bRSV(RB94)_Fd_(hRSV-leader)_ig1; experiment: as above

**Q.** motavizumab (antibody) was tested. Which ELISA binding value [1] did it give?
**A.** Its ELISA binding value is 1.94.

**Q.** What about the ELISA binding value (391-2-DS-Cav1-BZGJ9 Long) of the same substance?
**A.** Its ELISA binding value is 1.55.

**Q.** And the ELISA binding value (391-2-DS-Cav1-BZGJ9_gyc5)?
**A.** Its ELISA binding value is 2.04.

**Q.** And the ELISA binding value (391-2-DS-Cav1-BZGJ9_gyc7)?
**A.** The ELISA binding value was 0.977.

**Q.** And the ELISA binding value [2]?
**A.** The ELISA binding value was 0.603.

**Q.** And the ELISA binding value [3]?
**A.** The ELISA binding value was 0.393.

**Q.** What about the ELISA binding value [4] of the same substance?
**A.** Its ELISA binding value is 0.503.

**Q.** What about the ELISA binding value [5] of the same substance?
**A.** The ELISA binding value was 0.899.

**Q.** What about the ELISA binding value [6] of the same substance?
**A.** Its ELISA binding value is 0.589.

**Q.** And the ELISA binding value [7]?
**A.** The ELISA binding value was 1.21.

**Q.** What about the ELISA binding value [8] of the same substance?
**A.** Its ELISA binding value is 0.569.

**Q.** What about the ELISA binding value [9] of the same substance?
**A.** Its ELISA binding value is 0.891.

**Q.** And the ELISA binding value [10]?
**A.** The ELISA binding value was 0.487.

**Q.** And the ELISA binding value [11]?
**A.** Its ELISA binding value is 2.08.

**Q.** And the ELISA binding value (391-2_DS-Cav1-tzsc7)?
**A.** The ELISA binding value was 1.99.

**Q.** What about the ELISA binding value (391-2wt_F-SC_12R core) of the same substance?
**A.** Its ELISA binding value is 0.821.

**Q.** What about the ELISA binding value [12] of the same substance?
**A.** Its ELISA binding value is 1.44.

**Q.** And the ELISA binding value [13]?
**A.** Its ELISA binding value is 0.633.

**Q.** And the ELISA binding value [14]?
**A.** Its ELISA binding value is 2.26.

**Q.** What about the ELISA binding value [15] of the same substance?
**A.** The ELISA binding value was 1.86.

**Q.** And the ELISA binding value [16]?
**A.** Its ELISA binding value is 0.748.

**Q.** What about the ELISA binding value [17] of the same substance?
**A.** Its ELISA binding value is 2.22.

**Q.** What about the ELISA binding value [18] of the same substance?
**A.** The ELISA binding value was 1.81.

**Q.** And the ELISA binding value (391-2-DS-Cav1- F-SC_11R)?
**A.** Its ELISA binding value is 0.538.

**Q.** And the ELISA binding value (391-2-DS-Cav1-BZGJ9_gyc3)?
**A.** Its ELISA binding value is 0.599.

**Q.** And the ELISA binding value (391-2-DS-Cav1-BZGJ9_gyc4)?
**A.** Its ELISA binding value is 0.486.

**Q.** And the ELISA binding value (391-2-DS-Cav1-BZGJ9_gyc6)?
**A.** Its ELISA binding value is 1.05.

**Q.** What about the ELISA binding value [19] of the same substance?
**A.** Its ELISA binding value is 0.152.

**Q.** What about the ELISA binding value (391-2-DS-Cav1-BZGJ9) of the same substance?
**A.** The ELISA binding value was 0.5.

**Q.** What about the ELISA binding value (391-2-DS-Cav1-IP-2) of the same substance?
**A.** Its ELISA binding value is 0.556.

**Q.** What about the ELISA binding value (391-2-DS-Cav1-IP-7) of the same substance?
**A.** The ELISA binding value was 0.546.

**Q.** And the ELISA binding value (391-2-DS-Cav1-SC-IP-1)?
**A.** The ELISA binding value was 1.1.

**Q.** And the ELISA binding value (391-2_DS-Cav1-tzsc2)?
**A.** Its ELISA binding value is 0.366.

**Q.** What about the ELISA binding value (391-2_DS-Cav1-tzsc4) of the same substance?
**A.** The ELISA binding value was 0.639 and 0.505.

**Q.** And the ELISA binding value (391-2_DS-Cav1-tzsc6)?
**A.** The ELISA binding value was 0.527.

**Q.** And the ELISA binding value (391-2_DS-Cav1-tzsc9)?
**A.** Its ELISA binding value is 1.59.

**Q.** And the ELISA binding value [20]?
**A.** Its ELISA binding value is 0.271.

**Q.** And the ELISA binding value [21]?
**A.** Its ELISA binding value is 0.689.

**Q.** What about the ELISA binding value [22] of the same substance?
**A.** Its ELISA binding value is 0.538.
